Among the data in article PMC10786891, “Massively parallel profiling of RNA-targeting CRISPR-Cas13d” are Kd values, retold here.

T1: EsCas13d, nuclease-dead (Eubacterium siraeum, UniProt B0MS50, R295A;H300A;R849A;H854A)
T1 sequence: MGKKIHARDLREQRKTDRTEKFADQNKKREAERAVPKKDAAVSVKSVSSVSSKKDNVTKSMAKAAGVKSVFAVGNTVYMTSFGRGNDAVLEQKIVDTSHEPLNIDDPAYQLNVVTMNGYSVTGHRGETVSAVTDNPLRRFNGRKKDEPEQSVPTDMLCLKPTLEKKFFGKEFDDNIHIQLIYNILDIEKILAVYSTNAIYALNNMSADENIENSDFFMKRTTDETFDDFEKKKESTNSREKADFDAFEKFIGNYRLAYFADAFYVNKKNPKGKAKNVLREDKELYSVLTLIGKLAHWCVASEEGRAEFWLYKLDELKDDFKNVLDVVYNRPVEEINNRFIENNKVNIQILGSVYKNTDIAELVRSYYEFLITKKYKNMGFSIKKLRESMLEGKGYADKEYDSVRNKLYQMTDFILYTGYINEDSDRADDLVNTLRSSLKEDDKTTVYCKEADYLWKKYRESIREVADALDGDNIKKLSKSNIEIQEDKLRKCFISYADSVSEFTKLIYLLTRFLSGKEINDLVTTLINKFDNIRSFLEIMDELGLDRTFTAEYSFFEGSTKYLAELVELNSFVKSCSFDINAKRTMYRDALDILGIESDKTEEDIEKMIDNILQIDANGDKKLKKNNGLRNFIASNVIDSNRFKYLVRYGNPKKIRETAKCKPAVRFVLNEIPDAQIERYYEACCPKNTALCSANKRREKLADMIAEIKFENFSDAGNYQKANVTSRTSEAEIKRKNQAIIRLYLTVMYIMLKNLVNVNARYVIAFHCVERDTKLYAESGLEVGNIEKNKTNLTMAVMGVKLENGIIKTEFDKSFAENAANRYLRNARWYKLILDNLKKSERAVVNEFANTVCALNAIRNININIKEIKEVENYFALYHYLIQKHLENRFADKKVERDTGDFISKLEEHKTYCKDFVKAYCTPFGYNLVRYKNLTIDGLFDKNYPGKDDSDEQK

B1: target 1 insA 3' of 19,insA 3' of 12 (mixed)
RNA 1: CACCCGUGCAAAAAUGCAGGGGUCUAAAACUGAGCGGAUAACCUCUCUAUGG
RNA 2: GGGAAUGGAUCCACAUCUACGAAUUCGUACCAUAAGAGAGGAUUAUCCGCUCACCGAGAUCGGAAGAGCACACGU
B2: target 1 A9G,A16U (mixed)
RNA 1: CACCCGUGCAAAAAUGCAGGGGUCUAAAACUGAGCGGAUAACCUCUCUAUGG
RNA 2: GGGAAUGGAUCCACAUCUACGAAUUCGUACCAUAGUGAGGUUGUCCGCUCACCGAGAUCGGAAGAGCACACGU
B3: target 1 U10C,C22U (mixed)
RNA 1: CACCCGUGCAAAAAUGCAGGGGUCUAAAACUGAGCGGAUAACCUCUCUAUGG
RNA 2: GGGAAUGGAUCCACAUCUACGAAUUCGUAUCAUAGAGAGGUCAUCCGCUCACCGAGAUCGGAAGAGCACACGU
B4: target 1 G5C,C6A (mixed)
RNA 1: CACCCGUGCAAAAAUGCAGGGGUCUAAAACUGAGCGGAUAACCUCUCUAUGG
RNA 2: GGGAAUGGAUCCACAUCUACGAAUUCGUACCAUAGAGAGGUUAUCACCUCACCGAGAUCGGAAGAGCACACGU
B5: target 1 del4,del13 (mixed)
RNA 1: CACCCGUGCAAAAAUGCAGGGGUCUAAAACUGAGCGGAUAACCUCUCUAUGG
RNA 2: GGGAAUGGAUCCACAUCUACGAAUUCGUACCAUAGAGAGUUAUCCGUCACCGAGAUCGGAAGAGCACACGU
B6: target 1 insC 3' of 19,insC 3' of 1 (mixed)
RNA 1: CACCCGUGCAAAAAUGCAGGGGUCUAAAACUGAGCGGAUAACCUCUCUAUGG
RNA 2: GGGAAUGGAUCCACAUCUACGAAUUCGUACCAUCAGAGAGGUUAUCCGCUCACCCGAGAUCGGAAGAGCACACGU
B7: target 1 G5C,C7U (mixed)
RNA 1: CACCCGUGCAAAAAUGCAGGGGUCUAAAACUGAGCGGAUAACCUCUCUAUGG
RNA 2: GGGAAUGGAUCCACAUCUACGAAUUCGUACCAUAGAGAGGUUAUUCCCUCACCGAGAUCGGAAGAGCACACGU
B8: target 1 insA 3' of 8,insA 3' of 4 (mixed)
RNA 1: CACCCGUGCAAAAAUGCAGGGGUCUAAAACUGAGCGGAUAACCUCUCUAUGG
RNA 2: GGGAAUGGAUCCACAUCUACGAAUUCGUACCAUAGAGAGGUUAUACCGCAUCACCGAGAUCGGAAGAGCACACGU
B9: target 1 complement block 4-6 (mixed)
RNA 1: CACCCGUGCAAAAAUGCAGGGGUCUAAAACUGAGCGGAUAACCUCUCUAUGG
RNA 2: GGGAAUGGAUCCACAUCUACGAAUUCGUACCAUAGAGAGGUUAUCGCGUCACCGAGAUCGGAAGAGCACACGU
B10: target 1 G5C,G13A (mixed)
RNA 1: CACCCGUGCAAAAAUGCAGGGGUCUAAAACUGAGCGGAUAACCUCUCUAUGG
RNA 2: GGGAAUGGAUCCACAUCUACGAAUUCGUACCAUAGAGAAGUUAUCCCCUCACCGAGAUCGGAAGAGCACACGU
B11: target 1 A1C,C6U (mixed)
RNA 1: CACCCGUGCAAAAAUGCAGGGGUCUAAAACUGAGCGGAUAACCUCUCUAUGG
RNA 2: GGGAAUGGAUCCACAUCUACGAAUUCGUACCAUAGAGAGGUUAUCUGCUCCCCGAGAUCGGAAGAGCACACGU
B12: target 1 insC 3' of 11,insA 3' of 4 (mixed)
RNA 1: CACCCGUGCAAAAAUGCAGGGGUCUAAAACUGAGCGGAUAACCUCUCUAUGG
RNA 2: GGGAAUGGAUCCACAUCUACGAAUUCGUACCAUAGAGAGGUCUAUCCGCAUCACCGAGAUCGGAAGAGCACACGU
B13: target 1 complement block 8-11 (mixed)
RNA 1: CACCCGUGCAAAAAUGCAGGGGUCUAAAACUGAGCGGAUAACCUCUCUAUGG
RNA 2: GGGAAUGGAUCCACAUCUACGAAUUCGUACCAUAGAGAGGAAUACCGCUCACCGAGAUCGGAAGAGCACACGU
B14: target 1 insC 3' of 19,insU 3' of 1 (mixed)
RNA 1: CACCCGUGCAAAAAUGCAGGGGUCUAAAACUGAGCGGAUAACCUCUCUAUGG
RNA 2: GGGAAUGGAUCCACAUCUACGAAUUCGUACCAUCAGAGAGGUUAUCCGCUCAUCCGAGAUCGGAAGAGCACACGU
B15: target 1 C6U,U8C (mixed)
RNA 1: CACCCGUGCAAAAAUGCAGGGGUCUAAAACUGAGCGGAUAACCUCUCUAUGG
RNA 2: GGGAAUGGAUCCACAUCUACGAAUUCGUACCAUAGAGAGGUUACCUGCUCACCGAGAUCGGAAGAGCACACGU
B16: target 1 insA 3' of 13,insA 3' of 6 (mixed)
RNA 1: CACCCGUGCAAAAAUGCAGGGGUCUAAAACUGAGCGGAUAACCUCUCUAUGG
RNA 2: GGGAAUGGAUCCACAUCUACGAAUUCGUACCAUAGAGAGAGUUAUCCAGCUCACCGAGAUCGGAAGAGCACACGU
B17: target 1 A9U,A20U (mixed)
RNA 1: CACCCGUGCAAAAAUGCAGGGGUCUAAAACUGAGCGGAUAACCUCUCUAUGG
RNA 2: GGGAAUGGAUCCACAUCUACGAAUUCGUACCUUAGAGAGGUUUUCCGCUCACCGAGAUCGGAAGAGCACACGU
B18: target 1 U3C,C21U (mixed)
RNA 1: CACCCGUGCAAAAAUGCAGGGGUCUAAAACUGAGCGGAUAACCUCUCUAUGG
RNA 2: GGGAAUGGAUCCACAUCUACGAAUUCGUACUAUAGAGAGGUUAUCCGCCCACCGAGAUCGGAAGAGCACACGU
B19: target 1 C7G,A9G (mixed)
RNA 1: CACCCGUGCAAAAAUGCAGGGGUCUAAAACUGAGCGGAUAACCUCUCUAUGG
RNA 2: GGGAAUGGAUCCACAUCUACGAAUUCGUACCAUAGAGAGGUUGUGCGCUCACCGAGAUCGGAAGAGCACACGU
B20: target 1 insC 3' of 19,insG 3' of 1 (mixed)
RNA 1: CACCCGUGCAAAAAUGCAGGGGUCUAAAACUGAGCGGAUAACCUCUCUAUGG
RNA 2: GGGAAUGGAUCCACAUCUACGAAUUCGUACCAUCAGAGAGGUUAUCCGCUCAGCCGAGAUCGGAAGAGCACACGU
B21: target 1 U3C,G12A (mixed)
RNA 1: CACCCGUGCAAAAAUGCAGGGGUCUAAAACUGAGCGGAUAACCUCUCUAUGG
RNA 2: GGGAAUGGAUCCACAUCUACGAAUUCGUACCAUAGAGAGAUUAUCCGCCCACCGAGAUCGGAAGAGCACACGU
B22: target 1 insC 3' of 19,insA 3' of 2 (mixed)
RNA 1: CACCCGUGCAAAAAUGCAGGGGUCUAAAACUGAGCGGAUAACCUCUCUAUGG
RNA 2: GGGAAUGGAUCCACAUCUACGAAUUCGUACCAUCAGAGAGGUUAUCCGCUCAACCGAGAUCGGAAGAGCACACGU
B23: target 1 insG 3' of 7 (mixed)
RNA 1: CACCCGUGCAAAAAUGCAGGGGUCUAAAACUGAGCGGAUAACCUCUCUAUGG
RNA 2: GGGAAUGGAUCCACAUCUACGAAUUCGUACCAUAGAGAGGUUAUCGCGCUCACCGAGAUCGGAAGAGCACACGU

This data set concerns the target T1, EsCas13d, nuclease-dead. Nature of the data set: crRNA (strand 1, pre-loaded); Mg2+; 40 mM Tris-HCl pH 7.5, 150 mM NaCl, 6 mM MgCl2, 1 mM DTT, 0.1% Tween-20, 0.2 mg/ml BSA; 25 C; 10 min per concentration, then washed. Particulars: tags: His6-TwinStrep-SUMO cleaved; N-terminal SNAP kept (SNAP-Surface 488); label: 3' end held by stalled T7 RNA polymerase.
As a reminder, the Kd is the concentration at which binding is half-saturated. Read a low Kd as higher affinity. The molecule B1 returned a Kd of 54 ± 5 nM.
The molecule B2 displayed a Kd of 82 ± 27 nM.
As to B3, the Kd stood at 56 ± 8 nM.
In the case of B4, the Kd came to 11.3 ± 0.8 nM.
As for B5, the Kd is 16.5 ± 1.4 nM.
The result for B6 reads 26.4 ± 3 nM.
B7: the Kd came to 33 ± 6 nM.
B8 showed a Kd of 8.4 ± 0.5 nM.
Molecule B9 registered a Kd of 4.95 ± 0.15 nM.
As to B10, the Kd stood at 5.8 ± 0.4 nM.
The result for B11 reads 9.2 ± 0.9 nM; that for B12, 21.1 ± 2 nM; that for B13, 18.2 ± 0.8 nM.
Turning to B14, binding was characterised by a dissociation constant (Kd) of 39 ± 8 nM.
Molecule B15 returned a Kd of 15.6 ± 0.5 nM.
The result for B16 reads 4.18 ± 0.24 nM; that for B17, 43 ± 4 nM.
To B18 belongs 27 ± 7 nM; to B19, 14.5 ± 0.8 nM.
B20: binding was put at a Kd of 31 ± 4 nM.
In the case of B21, the Kd was found to be 11.1 ± 1.1 nM.
For the molecule B22, the dissociation constant (Kd) was 33.8 ± 3.1 nM.
The result for B23 reads 5.5 ± 0.16 nM.
